Experimental findings from patent publication US20100092998A1 (PENN STATE RESEARCH FOUNDATION, published 2010) are described below.

This assay concerns the target T1, human ubiquitin conjugating enzyme E2 protein Ubc-7 (human, UniProt P60604 1-165, limits assumed).
T1 construct: also called Homo sapiens ubiquitin-conjugating enzyme E2G 2; UCE E2 Ubc7
T1 sequence: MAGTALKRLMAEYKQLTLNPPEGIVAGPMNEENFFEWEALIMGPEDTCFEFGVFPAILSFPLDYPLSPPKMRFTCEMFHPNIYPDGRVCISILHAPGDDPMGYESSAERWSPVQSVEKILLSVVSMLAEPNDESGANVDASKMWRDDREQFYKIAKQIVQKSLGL
As to the kind of experiment: crystal structure of the gp78-Ubc7 fusion protein (SEQ ID No. 12) solved to 2.2 Å.

B1: gp78 E3 RING motif with flanking sequence (amino acid residues 322 to 393 of the full-length gp78 E3 protein) (other)
chain: MEARFAVATPEELAVNNDDCAICWDSMQAARKLPCGHLFHNSCLRSWLEQDTSCPTCRMSLNIADNNRVREE
notes: also called gp78 RING; gp78RING motif
For the molecule B1, the binding result is listed as “binds”.
